The record followed here is patent US20160058848A1.

For data set [1], the target named is human corin mutant S472G (human) (UniProt Q9Y5Q5). Nature of the data set: cell-based or functional assay.
For data set [2], the target named is human corin mutant K317E (human) (UniProt Q9Y5Q5). The experiment in a line: cell-based or functional assay.
For data set [3], the target named is human corin mutant R539C (human) (UniProt Q9Y5Q5). Nature of the data set: cell-based or functional assay.
Data set [4] addresses T1, human corin variant T555I, Q9Y5Q5.
T1 chain: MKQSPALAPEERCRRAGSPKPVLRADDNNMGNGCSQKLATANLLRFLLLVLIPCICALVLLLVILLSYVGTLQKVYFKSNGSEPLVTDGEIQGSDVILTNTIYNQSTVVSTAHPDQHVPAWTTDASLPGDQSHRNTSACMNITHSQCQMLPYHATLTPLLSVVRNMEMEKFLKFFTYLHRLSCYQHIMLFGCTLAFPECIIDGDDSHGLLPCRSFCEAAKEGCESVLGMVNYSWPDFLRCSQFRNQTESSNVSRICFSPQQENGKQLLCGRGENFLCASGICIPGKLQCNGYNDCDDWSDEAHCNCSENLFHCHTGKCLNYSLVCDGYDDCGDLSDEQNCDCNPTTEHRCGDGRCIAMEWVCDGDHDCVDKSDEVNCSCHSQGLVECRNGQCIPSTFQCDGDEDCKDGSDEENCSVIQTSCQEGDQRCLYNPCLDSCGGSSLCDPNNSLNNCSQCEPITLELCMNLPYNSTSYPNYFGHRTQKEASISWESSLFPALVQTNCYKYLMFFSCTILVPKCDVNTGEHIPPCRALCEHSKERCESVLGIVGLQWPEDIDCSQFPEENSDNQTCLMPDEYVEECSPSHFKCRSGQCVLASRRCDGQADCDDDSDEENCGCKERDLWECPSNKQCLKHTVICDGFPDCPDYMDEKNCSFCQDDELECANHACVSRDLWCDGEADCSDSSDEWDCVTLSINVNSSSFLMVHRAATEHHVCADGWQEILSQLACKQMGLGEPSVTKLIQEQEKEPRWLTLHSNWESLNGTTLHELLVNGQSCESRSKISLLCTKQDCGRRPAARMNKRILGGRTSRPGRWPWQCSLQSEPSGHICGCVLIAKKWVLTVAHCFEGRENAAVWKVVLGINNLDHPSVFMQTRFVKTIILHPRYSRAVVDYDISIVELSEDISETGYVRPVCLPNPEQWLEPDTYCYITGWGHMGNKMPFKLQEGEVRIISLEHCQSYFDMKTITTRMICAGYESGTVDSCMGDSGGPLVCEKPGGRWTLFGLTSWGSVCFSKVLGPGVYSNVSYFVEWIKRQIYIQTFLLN

Data set [5] has as its target T2, human corin mutant R801A, Q9Y5Q5.
T2 chain: T1 chain with I555T, R801A

Where a chain is given by its changes, count along the chain named.

B1: recombinant human proprotein convertase subtilisin/kexin-6 (PCSK6) with a C-terminal flag tag (protein)
chain: QVRSDPQALYFNDPIWSNMWYLHCGDKNSRCRSEMNVQAAWKRGYTGKNVVVTILDDGIERNHPDLAPNYDSYASYDVNGNDYDPSPRYDASNENKHGTRCAGEVAASANNSYCIVGIAYNAKIGGIRMLDGDVTDVVEAKSLGIRPNYIDIYSASWGPDDDGKTVDGPGRLAKQAFEYGIKKGRQGLGSIFVWASGNGGREGDYCSCDGYTNSIYTISVSSATENGYKPWYLEECASTLATTYSSGAFYERKIVTTDLRQRCTDGHTGTSVSAPMVAGIIALALEANSQLTWRDVQHLLVKTSRPAHLKASDWKVNGAGHKVSHFYGFGLVDAEALVVEAKKWTAVPSQHMCVAASDKRPRSIPLVQVLRTTALTSACAEHSDQRVVYLEHVVVRTSISHPRRGDLQIYLVSPSGTKSQLLAKRLLDLSNEGFTNWEFMTVHCWGEKAEGQWTLEIQDLPSQVRNPEKQGKLKEWSLILYGTAEHPYHTFSAHQSRSRMLELSAPELEPPKAALSPSQVEVPEDEEDYTAQSTPGSANILQTSVCHPECGDKGCDGPNADQCLNCVHFSLGSVKTSRKCVSVCPLGYFGDTAARRCRRCHKGCETCSSRAATQCLSCRRGFYHHQEMNTCVTLCPAGFYADESQKNCLKCHPSCKKCVDEPEKCTVCKEGFSLARGSCIPDCEPGTYFDSELIRCGECHHTCGTCVGPGREECIHCAKNFHFHDWKCVPACGEGFYPEEMPGLPHKVCRRCDENCLSCAGSSRNCSRCKTGFTQLGTSCITNHTCSNADETFCEMVKSNRLCERKLFIQFCCRTCLLAG
Take B1: the reduction in PCSK6-mediated corin activation compared with WT corin (Western blot, densitometry) (% reduction vs WT corin) in data set [1] worked out at 99; in data set [2], 39; in data set [3], 62. For the same molecule, the “PCSK6-mediated activation cleavage (Western blot, densitometry)” value in data set [4] was “PCSK6-mediated activation cleavage was detected in corin WT and variants T555I or Q568P, but not variant T555I/Q568P”; in data set [5], “In controls, no activation cleavage was detected in mutant R801A lacking the cleavage site”.
